Read-outs that look alike come from different tables or passages of the source. Each block holds one binder with its values, some of them ahead of it.
Assays:
[1] = molecular target: T1, human LOX1 on cells (human LOX1 transfected CHO TREX cells) (human, UniProt P78380 1-273); assay: cell-based or functional assay
Human CLEC-7A (Dectin-1) [2] = molecular target: T2, Human CLEC-7A (Dectin-1) (human, UniProt Q9BXN2-2 66-201, limits assumed); assay: IgG binding ELISA on coated antigen, absorbance at 450 nm
T2 construct: Bought protein; also called C-type lectin domain family 7 member A
T2 sequence (looked up): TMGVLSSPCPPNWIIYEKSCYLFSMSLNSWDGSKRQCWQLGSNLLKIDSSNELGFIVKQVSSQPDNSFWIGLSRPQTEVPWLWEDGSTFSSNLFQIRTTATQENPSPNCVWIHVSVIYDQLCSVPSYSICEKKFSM

Human CLEC-1A [3] = molecular target: T3, Human CLEC-1A (human, UniProt Q8NC01 74-280, limits assumed); assay: as above
T3 construct: Bought protein; also called C-type lectin domain family 1 member A
T3 sequence (looked up): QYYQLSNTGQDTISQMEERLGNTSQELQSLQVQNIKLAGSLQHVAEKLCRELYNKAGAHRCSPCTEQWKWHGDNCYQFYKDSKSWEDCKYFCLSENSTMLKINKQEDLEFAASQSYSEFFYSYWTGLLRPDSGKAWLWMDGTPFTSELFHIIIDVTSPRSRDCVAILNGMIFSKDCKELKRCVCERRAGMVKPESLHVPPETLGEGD

Human CLEC-4L (DC-SIGN) [4] = molecular target: T4, Human CLEC-4L (DC-SIGN) (human, UniProt Q9NNX6 62-404); assay: as above
T4 construct: Bought protein; also called C-type lectin domain family 4 member L
T4 sequence (looked up): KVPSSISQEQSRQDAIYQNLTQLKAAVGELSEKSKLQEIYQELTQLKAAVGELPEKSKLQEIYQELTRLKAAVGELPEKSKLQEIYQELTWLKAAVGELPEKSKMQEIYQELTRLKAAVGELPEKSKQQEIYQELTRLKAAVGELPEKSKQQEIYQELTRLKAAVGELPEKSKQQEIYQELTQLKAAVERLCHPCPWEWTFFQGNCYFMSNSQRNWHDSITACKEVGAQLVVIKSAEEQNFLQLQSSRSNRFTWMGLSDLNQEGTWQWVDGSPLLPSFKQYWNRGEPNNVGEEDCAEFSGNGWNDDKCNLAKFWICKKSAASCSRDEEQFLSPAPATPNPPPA

Human CLEC-1B (CLEC-2) [5] = molecular target: T5, Human CLEC-1B (CLEC-2) (human, UniProt Q9P126 58-229, limits assumed); assay: as above
T5 construct: Bought protein; also called C-type lectin domain family 1 member B
T5 sequence (Q9P126 58-229 limits assumed): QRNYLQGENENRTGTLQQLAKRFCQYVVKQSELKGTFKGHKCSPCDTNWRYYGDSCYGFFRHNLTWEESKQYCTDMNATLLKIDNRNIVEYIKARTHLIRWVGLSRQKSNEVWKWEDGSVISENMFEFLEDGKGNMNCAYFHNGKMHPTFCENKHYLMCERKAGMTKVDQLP

Human SR-A1 (MSR) [6] = molecular target: T6, Human SR-A1 (MSR) (human, UniProt P21757 77-451); assay: as above
T6 construct: Bought protein; also called Macrophage scavenger receptor types I and II
T6 sequence (looked up): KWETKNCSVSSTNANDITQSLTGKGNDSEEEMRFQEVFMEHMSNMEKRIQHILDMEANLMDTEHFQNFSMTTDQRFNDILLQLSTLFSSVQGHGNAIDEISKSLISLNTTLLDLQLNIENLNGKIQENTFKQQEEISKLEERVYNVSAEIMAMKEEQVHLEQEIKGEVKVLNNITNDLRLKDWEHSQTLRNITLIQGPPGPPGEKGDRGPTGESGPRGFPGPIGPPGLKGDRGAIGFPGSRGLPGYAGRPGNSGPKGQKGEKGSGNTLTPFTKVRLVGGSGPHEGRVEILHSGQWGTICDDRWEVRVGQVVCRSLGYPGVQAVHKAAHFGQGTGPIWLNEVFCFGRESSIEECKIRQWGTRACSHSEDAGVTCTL

Human SR-B3 (CD36) [7] = molecular target: T7, Human SR-B3 (CD36) (human, UniProt P16671 30-439); assay: as above
T7 construct: Bought protein; also called Platelet glycoprotein 4
T7 sequence (P16671 30-439 limits assumed): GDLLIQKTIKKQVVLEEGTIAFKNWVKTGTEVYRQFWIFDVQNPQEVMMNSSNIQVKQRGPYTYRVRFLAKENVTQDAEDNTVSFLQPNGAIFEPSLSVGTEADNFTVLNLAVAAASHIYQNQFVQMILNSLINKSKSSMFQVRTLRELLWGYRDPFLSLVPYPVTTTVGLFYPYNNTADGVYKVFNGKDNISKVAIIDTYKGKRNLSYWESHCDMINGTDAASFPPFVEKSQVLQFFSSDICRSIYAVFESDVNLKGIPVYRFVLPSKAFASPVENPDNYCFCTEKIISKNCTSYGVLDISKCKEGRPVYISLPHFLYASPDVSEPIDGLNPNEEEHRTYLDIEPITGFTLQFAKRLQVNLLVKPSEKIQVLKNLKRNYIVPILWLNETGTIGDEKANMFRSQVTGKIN

[8] = molecular target: T1, human LOX1 on cells (human LOX1 …); assay: competition with DyLight 649 AGE-BSA on human LOX1 CHO TREX cells, FMAT
[9] = molecular target: T8, recombinant human LOX1 (R&D Systems) (human, UniProt P78380 61-273); assay: competition with biotin CRP on plate-bound recombinant human LOX1, DELFIA
[10] = molecular target: T1, human LOX1 on cells (human LOX1 …); assay: competition with DyLight 649 oxLDL on hLOX1 CHO TREX cells (FMAT); row label not given, assay assigned by block order of Table 5
[11] = molecular target: T1, human LOX1 on cells (human LOX1 …); assay: competition with DyLight 649 AGE-BSA on hLOX1 CHO TREX cells (FMAT); row label not given, assay assigned by block order of Table 5
[12] = molecular target: T8, recombinant human LOX1 (R&D Systems); assay: competition with biotin CRP on immobilised recombinant hLOX1 (DELFIA); row label not given, assay assigned by block order of Table 5
[13] = molecular target: T1, human LOX1 on cells (human LOX1 …); assay: saturation binding of DyLight 649 labelled antibody on hLOX1 CHO TREX cells (FMAT); DyLight 649 labeled antibody on hLOX1 CHO TREX cells
[14] = molecular target: T1, human LOX1 on cells (human LOX1 …); assay: cell-based or functional assay; remark: listed apart in the source
Human CLEC-7A (Dectin-1) [15] = molecular target: T2, Human CLEC-7A (Dectin-1); assay: IgG binding ELISA on coated antigen, absorbance at 450 nm; remark: listed apart in the source
Human CLEC-1A [16] = molecular target: T3, Human CLEC-1A; assay: as above; remark: listed apart in the source
Human CLEC-4L (DC-SIGN) [17] = molecular target: T4, Human CLEC-4L (DC-SIGN); assay: as above; remark: listed apart in the source
Human CLEC-1B (CLEC-2) [18] = molecular target: T5, Human CLEC-1B (CLEC-2); assay: as above; remark: listed apart in the source
Human SR-A1 (MSR) [19] = molecular target: T6, Human SR-A1 (MSR); assay: as above; remark: listed apart in the source
Human SR-B3 (CD36) [20] = molecular target: T7, Human SR-B3 (CD36); assay: as above; remark: listed apart in the source
[21] = molecular target: T1, human LOX1 on cells (human LOX1 …); assay: competition with DyLight 649 oxLDL on hLOX1 CHO TREX cells (FMAT), mean
[22] = molecular target: T1, human LOX1 on cells (human LOX1 …); assay: competition with DyLight 649 AGE-BSA on hLOX1 CHO TREX cells (FMAT), mean
[23] = molecular target: T8, recombinant human LOX1 (R&D Systems); assay: competition with biotin CRP on immobilised recombinant hLOX1 (DELFIA), mean
[24] = molecular target: T9, human LOX1 SNP K167N variant on cells (K167N SNP transfected CHO TREX cells) (human, UniProt P78380 1-273); assay: competition with DyLight 649 oxLDL on K167N hLOX1 CHO TREX cells (FMAT), mean
T9 construct: whole, on cells; also called hLOX1 K167N; K167N hLOX1 CHO

[25] = molecular target: T10, mouse LOX1-(FlagHis) extracellular domain (mouse, UniProt Q9EQ09 55-363); assay: IgG binding ELISA on coated antigen, europium anti-human IgG detection
T10 construct: extracellular domain
T10 sequence (Q9EQ09 55-363): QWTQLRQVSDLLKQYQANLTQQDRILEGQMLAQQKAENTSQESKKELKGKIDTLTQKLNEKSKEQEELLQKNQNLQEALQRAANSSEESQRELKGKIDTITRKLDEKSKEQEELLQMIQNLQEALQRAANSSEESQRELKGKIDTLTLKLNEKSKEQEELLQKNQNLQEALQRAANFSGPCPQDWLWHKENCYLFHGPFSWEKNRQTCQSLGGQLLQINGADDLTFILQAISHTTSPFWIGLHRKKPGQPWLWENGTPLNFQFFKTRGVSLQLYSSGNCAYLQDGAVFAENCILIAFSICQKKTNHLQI

[26] = molecular target: T11, rat LOX1-(FlagHis) extracellular domain (rat, UniProt O70156 55-364); assay: as above
T11 construct: extracellular domain
T11 sequence (O70156 55-364): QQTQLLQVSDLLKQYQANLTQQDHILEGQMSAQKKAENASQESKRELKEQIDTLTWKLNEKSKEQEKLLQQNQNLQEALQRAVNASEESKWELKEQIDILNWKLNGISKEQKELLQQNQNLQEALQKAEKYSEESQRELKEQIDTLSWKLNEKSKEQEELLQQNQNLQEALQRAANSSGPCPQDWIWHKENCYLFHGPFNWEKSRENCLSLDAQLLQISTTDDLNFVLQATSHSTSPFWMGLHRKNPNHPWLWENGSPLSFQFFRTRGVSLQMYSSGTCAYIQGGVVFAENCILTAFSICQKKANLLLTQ

[27] = molecular target: T12, rabbit LOX1-(FlagHis) extracellular domain (rabbit, UniProt Q9XTA8 55-274); assay: as above
T12 construct: extracellular domain
T12 sequence (Q9XTA8 55-274): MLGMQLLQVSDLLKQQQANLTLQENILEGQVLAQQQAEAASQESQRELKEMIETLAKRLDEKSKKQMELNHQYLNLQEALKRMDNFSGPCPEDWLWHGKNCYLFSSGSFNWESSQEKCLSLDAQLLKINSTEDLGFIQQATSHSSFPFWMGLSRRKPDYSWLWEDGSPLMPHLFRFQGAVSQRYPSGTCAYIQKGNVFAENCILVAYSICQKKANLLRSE

[28] = molecular target: T1, human LOX1 on cells (human LOX1 …); assay: competition with DyLight 649 oxLDL on human LOX1 CHO TREX cells, FMAT
[29] = molecular target: T1, human LOX1 on cells (human LOX1 …); assay: competition with DyLight 649 AGE-BSA on human LOX1 CHO TREX cells, FMAT; remark: listed apart in the source
[30] = molecular target: T8, recombinant human LOX1 (R&D Systems); assay: competition with biotin CRP on plate-bound recombinant human LOX1, DELFIA; remark: listed apart in the source
[31] = molecular target: T9, human LOX1 SNP K167N variant on cells …; assay: competition with DyLight 649 oxLDL on human LOX1 K167N CHO TREX cells, FMAT

IC50 of inhibition of Cypher 5E oxLDL internalization in hLOX1 CHO TREX cells (row label not given; assay assigned by block order of Table 5) [1]: 0.772 nM | IC50 of inhibition of oxLDL-dependent ROS generation in hLOX1 CHO TREX cells (row label not given; assay assigned by block order of Table 5) [1]: 8.28 nM | IC50 (read off the curve) [8]: ~0.1 nM | IC50 (read off the curve) [9]: ~2 nM | IC50 [10]: 0.642 nM | IC50 [11]: 0.207 nM | IC50 [12]: 1.98 nM | Kd [13]: 0.8 nM
B1: LOX514 IgG1-TM (antibody, V domains shown)
VH: QVQLVQSGAEVKKPGASVKVSCKVSGYTLTELSMHWVRQAPGKGLEWMGGFDPEDGETIYAQKFQGRVTMTEDTSTDTAYMELSSLRSEDTAVYYCATPNGQQGKGVRGWDYYYGMDVWGRGTTVTVSS
VL: QSVVTQPPSVSGAPGQRVTISCTGSSSNIGAGYDVHWYQQLPGTAPKLLIYGNSNRPSGVPDRFSGSKSGTSASLAITGLQAEDEADYYCQSYDSSLSGWVFGGGTKLTVL
notes: Whole human IgG1-TM (L234F/L235E/P331S); Labelled with DyLight 649 in Assay 7; also called LOX10514-IgG1-TM; LOX10514 IgG1-TM
binding result (Human CLEC-7A (Dectin-1) [2]): no binding (tested: 0.2 µg/mL (single concentration)) | binding result (Human CLEC-1A [3]): no binding (tested: 0.2 µg/mL (single concentration)) | binding result (Human CLEC-4L (DC-SIGN) [4]): no binding (tested: 0.2 µg/mL (single concentration)) | binding result (Human CLEC-1B (CLEC-2) [5]): no binding (tested: 0.2 µg/mL (single concentration)) | binding result (Human SR-A1 (MSR) [6]): no binding (tested: 0.2 µg/mL (single concentration)) | binding result (Human SR-B3 (CD36) [7]): no binding (tested: 0.2 µg/mL (single concentration))

ROS ASSAY (IC50, mean) [14]: 2.21 nM | oxLDL/hLOX1 CHO Internalisation (IC50, mean) [14]: 0.38 nM | binding result (Human CLEC-7A (Dectin-1) [15]): no binding | binding result (Human CLEC-1A [16]): no binding | binding result (Human CLEC-4L (DC-SIGN) [17]): no binding | binding result (Human CLEC-1B (CLEC-2) [18]): no binding | binding result (Human SR-A1 (MSR) [19]): no binding | binding result (Human SR-B3 (CD36) [20]): no binding | IC50 [21]: 0.02 nM | IC50 [22]: 0.0177 nM | IC50 [23]: 3 nM | IC50 [24]: 0.105 nM | IC50 (read off the curve) [28]: ~0.8 nM | IC50 (read off the curve) [29]: ~0.02 nM | IC50 (read off the curve) [30]: ~3 nM | IC50 (read off the curve) [31]: ~0.3 nM
B2: LX6960073_G82bS_gl IgG1-TM (antibody, V domains shown)
VH: EVQLVESGGGLVQPGRSLRLSCAASGFTSDDYAMHWVRQAPGKGLEWVSGISWNSGSIGYADSVKGRFTISRDNAKNSLYLQMNSLRAEDTAVYYCAREGSWNYDALDIWGQGTMVTVSS
VL: QSALTQPASVSGSPGQPITISCTGTSSDVGGYNYVSWYQQHPGKAPKLMIYDVSKRPSGVSNRFSGSKSGNTASLTISGLQAEDEADYYCMGGMGRSTNWVFGGGTKLTVL
notes: Whole human IgG1-TM, germlined, with heavy chain G82bS (Kabat); also called LOX10696_73
binding result [25]: no binding (tested: 10 µg/mL (single concentration)) | binding result [26]: no binding (tested: 10 µg/mL (single concentration)) | binding result [27]: no binding (tested: 10 µg/mL (single concentration))

Reference: US20210347900A1 (AstraZeneca / MedImmune, published 2021)
